The target of experiment [1] is T1, human ICOS ligand (B7-H2) (human, UniProt O75144 19-258, limits assumed).
T1 construct: it is treated as the same molecule; also called CD275; recombinant ICOS-L (R&D Systems)
T1 sequence (looked up): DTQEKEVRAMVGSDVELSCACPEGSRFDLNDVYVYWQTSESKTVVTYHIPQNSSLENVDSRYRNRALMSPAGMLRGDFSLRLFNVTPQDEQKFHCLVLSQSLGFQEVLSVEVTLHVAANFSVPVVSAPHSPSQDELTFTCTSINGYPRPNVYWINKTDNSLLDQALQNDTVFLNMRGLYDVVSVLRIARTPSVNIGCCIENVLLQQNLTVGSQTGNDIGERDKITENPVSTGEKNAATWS
Description: flow cytometry competition: activated T cells pre-incubated with recombinant ICOS-L (B7-H2), then stained with H2L5; CD8+ cells.

Experiment [2] addresses T2, rabbit Fc-tagged recombinant extracellular human ICOS (human, UniProt Q9Y6W8 21-140).
T2 construct: also called dimeric human ICOS; not shown: rabbit Fc tag
T2 sequence: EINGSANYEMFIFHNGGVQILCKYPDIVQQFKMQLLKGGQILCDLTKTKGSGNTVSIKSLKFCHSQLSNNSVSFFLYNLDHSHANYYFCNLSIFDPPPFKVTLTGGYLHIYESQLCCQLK
As to the kind of experiment: SPR (Biacore), compared with human ICOS-L binding to dimeric human ICOS (FIG. 15B).

B1: human ICOS on activated human T cells (receptor)
chain: EINGSANYEMFIFHNGGVQILCKYPDIVQQFKMQLLKGGQILCDLTKTKGSGNTVSIKSLKFCHSQLSNNSVSFFLYNLDHSHANYYFCNLSIFDPPPFKVTLTGGYLHIYESQLCCQLKFWLPIGCAAFVVVCILGCILICWLTKKKYSSSVHDPNGEYMFMRAVNTAKKSRLTDVTL
notes: the isoform 1 entry is named; also called cell surface ICOS; ICOS+ T cells (CD4, CD8, Treg)
As for B1, the binding result in experiment [1] is given as “binds”.

B2: H2L5 IgG4PE (antibody, V domains shown)
VH: QVQLVQSGAEVKKPGSSVKVSCKASGYTFTDYAMHWVRQAPGQGLEWMGLISIYSDHTNYNQKFQGRVTITADKSTSTAYMELSSLRSEDTAVYYCGRNNYGNYGWYFDVWGQGTTVTVSS
VL: EIVLTQSPATLSLSPGERATLSCSASSSVSYMHWYQQKPGQAPRLLIYDTSKLASGIPARFSGSGSGTDYTLTISSLEPEDFAVYYCFQGSGYPYTFGQGTKLEIK
notes: Human IgG4 with Fc mutations S228P and L235E (EU numbering), called IgG4PE; humanized variant of murine clone 422.2; also called ICOS IgG4PE; H2L5 (ICOS) IgG4PE
Turning to B2, in experiment [2], the “fold higher affinity than the ICOS-L/ICOS interaction” value is roughly 17 fold.

The values above are taken from patent US20200190194A1 (GlaxoSmithKline, published 2020).
